Entries after “also recorded” stand apart in the source; their conditions may differ.
B1: ranpirnase (protein, UniProt P22069 1-104, looked up)
Protein P-30: QDWLTFQKKHITNTRDVDCDNIMSTNLFHCKDKNTFIYSRPEPVKAICKGIIASKNVLTTSEFYLSDCNVTSRPCKYKLKKSTNKFCVTCENQAPVHFVGVGSC
notes: RNase extracted from Rana pipiens, the Northern leopard frog; registered trademark name ONCONASE™

What was measured:
[1] = tested on: NCI-H292 lung cancer cell line; test: MTS viability of cells transfected with siFra-1 or scramble control (siC); format: cell-based, human; settings: 48 h
Description: Assays were performed on 96-well microtiter plates after plating of 7.7×10^4 cells/well. […] Cell viability was measured by the colorimetric methoxy-tetrazolium salt (MTS) Assay, CellTiter 96 Aqueous One Solution Cell Proliferation Assay (Promega), per the manufacturer's recommendations. MTS is a tetrazolium salt that undergoes a color change caused by its bioreduction of MTS into a water-soluble formazan. The conversion of MTS into the aqueous-soluble formazan is accomplished by dehydrogenase enzymes found in active mitochondria, with reaction occurring only in living cells. The quantity of formazan product measured by the amount of 490-nm light absorbance is directly proportional to the number of living cells in culture. Briefly, 20 μl of MTS reagent was added per well, and plates incubated at 37° C. for 2-3 h. Finally, the absorbance of each well was read at 490 nm and 650 nm. ΔOD from these two wavelengths were reported as the corrected viability. Fold changes were calculated with respect to the control as a measure of cell viability.
siFra-1 RNA interference (RNAi) duplexes were constructed from sequence information on mature mRNA extracted from the EST database available through the National Center for Biotechnology Information internet site using the open frame region from the cDNA sequence of exon 2 of the Fra-1 gene. The siRNA pool sequences targeting Fra-1 corresponded to the 107-126, 124-143, 230-249 coding regions relative to the first nucleotide of the start codon. The sequences were BLAST-searched (NCBI database) against EST libraries to ensure the specificity of the siRNA molecule. The siRNA duplexes or a scramble control were transfected into cancer lines using Lipofectamine 2000 (Invitrogen) as recommended by the manufacturer. Cells were incubated with complexes overnight, and the medium was replaced the next day. Cells were allowed to recover for 48 hours before treatments.
Cells were transfected with siFra-1 or scramble control (siC) and left to rest for 48 h before treatment. […] The PPARγ inhibitor GW9662 (2 μM) was added to observe the influence of PPARγ.

[2] = i.v. 2.5 mg/kg, twice a week for 2 weeks; previous studies, personal communication; cited from earlier work

Row | Molecule | influence of PPARγ antagonist on the synergistic effect of ranpirnase and rosiglitazone ([1]; GW9662 2 μM added to the combination) | apoptosis induction in vivo [2] | toxicity to the animals [2] | effect of Fra-1 knock-down (siFra-1 vs siC) on efficacy / cell killing of the single drug ([1]; ranpirnase 0.1, 1 or 10 μg/mL, rosiglitazone 10 or 20 μM) | cell viability (MTS) ([1]; ranpirnase 0.1, 1 or 10 μg/mL)
1 | O=C(Nc1ccccc1)c1cc([N+](=O)[O-])ccc1Cl [GW9662, reference compound] | did not significantly modify the synergistic effect of ranpirnase and rosiglitazone |  |  |  | 
2 | B1 |  | effective in producing apoptosis | non-toxic to the animals | significantly increased the efficacy of ranpirnase alone at all concentrations; also recorded: increases cell killing by ranpirnase (0.1, 1, or 10 μg/mL) in a concentration-dependent manner | reduced viability in a dose-dependent manner

Reference: US20090202513A1, “RIBONUCLEASE AND THIAZOLIDINEDIONE COMPOUNDS AND THEIR USE IN METHODS TO TREAT CANCER” (The University of Vermont and State Agriculture College, priority 2008, published 2009)
